The target in one assay is T1, subtilisin BPN′ (UniProt P00782 108-382).
T1 construct: subtilisin BPN′, a bacterial subtilisin; source: bought: Sigma
T1 sequence (looked up): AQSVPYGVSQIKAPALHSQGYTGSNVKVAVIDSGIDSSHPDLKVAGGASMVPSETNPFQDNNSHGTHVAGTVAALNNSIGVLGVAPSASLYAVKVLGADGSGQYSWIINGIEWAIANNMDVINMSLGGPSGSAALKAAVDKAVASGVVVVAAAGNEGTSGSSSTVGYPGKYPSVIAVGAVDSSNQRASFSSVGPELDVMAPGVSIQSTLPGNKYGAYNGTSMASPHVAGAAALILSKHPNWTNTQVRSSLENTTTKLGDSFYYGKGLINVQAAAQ
The experiment in a line: enzyme inhibition kinetics (Ki determination); hydrolysis of N-succinyl-L-Ala-L-Ala-L-Pro-L-Phe-p-nitroanilide by subtilisin BPN′ with PfSUB2PD; Ki determined as in ref. 33; data not shown. The note with it: both partners purified.

In assay [1] the target is PfSUB2T, 72-kDa terminal intracellular form of PfSUB2, HA3-tagged (P. falciparum) (UniProt O97364).
PfSUB2T, 72-kDa terminal intracellular form of PfSUB2, HA3-tagged (P. falciparum), sequence (O97364 688-1342): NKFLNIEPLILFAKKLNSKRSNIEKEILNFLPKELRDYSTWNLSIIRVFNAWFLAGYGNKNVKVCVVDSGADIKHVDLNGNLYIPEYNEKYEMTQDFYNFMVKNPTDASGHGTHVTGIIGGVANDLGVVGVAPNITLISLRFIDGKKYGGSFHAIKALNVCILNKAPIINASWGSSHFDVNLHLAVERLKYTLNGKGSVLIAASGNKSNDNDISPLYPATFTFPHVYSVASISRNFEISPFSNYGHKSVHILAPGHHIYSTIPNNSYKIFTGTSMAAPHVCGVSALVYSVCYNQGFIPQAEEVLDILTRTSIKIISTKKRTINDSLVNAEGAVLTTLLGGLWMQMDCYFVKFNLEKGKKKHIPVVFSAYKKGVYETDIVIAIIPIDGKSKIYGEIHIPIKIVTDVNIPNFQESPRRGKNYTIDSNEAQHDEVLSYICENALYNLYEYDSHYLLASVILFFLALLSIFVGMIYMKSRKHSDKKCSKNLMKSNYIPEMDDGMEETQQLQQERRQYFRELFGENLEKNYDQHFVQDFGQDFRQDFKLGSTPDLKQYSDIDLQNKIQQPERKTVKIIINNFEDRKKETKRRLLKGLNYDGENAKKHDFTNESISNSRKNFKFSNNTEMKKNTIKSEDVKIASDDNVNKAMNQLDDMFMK

B1: PfSUB2PD (recombinant PfSUB2 propeptide, Asn22-Leu687) (domain or fragment)
chain: NNNNNYYLSNIELYNYKLRKRNRILNNNINDRKSFLSDLEQNYKPLFDIYELSANFEKRRKELEKKTKGEENEIEKKKENDLEEKKENEIEKKKENDLEKEYNDVINLLELSLSSEYKELNADVSNNDNSGHEENNKHKLNKKNSSNYKNDKSLDELIKGAILKLKQNPNIKNKNMLDYDKIFKIIKEKLINKNLASNKIKGGDNEKLKEEKKQSDISTNVEVKKDIINDQLNKGIPTKIENKDDMINKESNKEDITNEGKSNSLNNLNTLNNDGNIITKVYDHYTIVTNSNDILNDISIDASDISKNSIGGINIPFNENDNSSFTHQRYIVLSNNGEKKYKIVLMTKNPKFMDMDGIYDEEEKKESLIELNQKVNKEENTNLYDGTGTLYYGKKSKKEKENTQQKGGNNPNVDINILNNNNNNNNNNNNNSNNNSNSMNDEEINYNNNNNKESPSMFRRFINFLSFSGNENETEDTLIYHNKNDNSYKNKKEGTGKNNDNNDPNNNNNKKILLNVDKLVDQYLLNLKNNHTSKQELILVLKGELDLHSKNMKNVINNAKKNLEKYFKEHFKEFDKISYDISTPINFLCIFIPTLFDMNNMDLLKQALLILHNDLHEYVENWSFSSTYHTYEADYIKEQDSVYDRSPKKKYIKASKKLYNNKYSFL
notes: PfSUB2, subtilisin-like protease 2 of P. falciparum T9/96, propeptide region Asn22-Leu687, amplified from the synthetic gene pfsub2synth; Asn22 is the predicted N-terminus after signal peptide removal; Cleavable 46-residue N-terminal fusion peptide with His6 and S-tag, from the vector pET-30Xa/LIC; not shown: His6, N-terminal, kept; S-tag, N-terminal, kept
In turn, B1 showed an inhibitory constant (Ki) with subtilisin BPN′ of 1200 nM. For the same molecule, the IC50 of inhibition of shedding of AMA1 and MSP1 (MESH activity) from isolated 3D7 merozoites; PfSUB2PD titrated from 1.2 μM to 0.075 μM in assay [1] is 300 nM.

(Values after article PMC1291349, “Molecular Identification of a Malaria Merozoite Surface Sheddase” (PLoS Pathogens, 2005).)
